Values quoted from earlier work as cited in publication PMC9241073.
pKd: −log10 of the molar value. Like-named read-outs stand apart in the source and are kept apart here.

What was measured:
PAK1 (Homo sapiens) [1] = biological target: PAK1 (Homo sapiens) (UniProt Q13153)
PAK1 (Homo sapiens) [2] = biological target: PAK1 (Homo sapiens) (UniProt Q13153); remark: listed apart in the source

Sequence of UniProt Q13153 (Q13153 2-545): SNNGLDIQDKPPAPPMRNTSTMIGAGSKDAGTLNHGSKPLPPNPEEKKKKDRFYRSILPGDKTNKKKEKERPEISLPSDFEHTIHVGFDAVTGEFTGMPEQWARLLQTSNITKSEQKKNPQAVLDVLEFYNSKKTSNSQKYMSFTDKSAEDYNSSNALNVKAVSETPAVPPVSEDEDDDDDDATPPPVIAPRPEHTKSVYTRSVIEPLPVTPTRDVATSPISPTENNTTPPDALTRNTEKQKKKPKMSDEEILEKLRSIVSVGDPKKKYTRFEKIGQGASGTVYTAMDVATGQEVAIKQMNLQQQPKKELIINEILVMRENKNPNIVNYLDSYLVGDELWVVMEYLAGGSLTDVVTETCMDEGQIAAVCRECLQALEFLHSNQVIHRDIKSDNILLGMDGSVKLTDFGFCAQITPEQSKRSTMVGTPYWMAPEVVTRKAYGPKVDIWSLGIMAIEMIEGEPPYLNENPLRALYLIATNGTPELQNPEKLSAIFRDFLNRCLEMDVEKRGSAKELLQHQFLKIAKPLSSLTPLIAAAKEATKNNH

Substance: CDC42 (from UniProt P60953)
- pKd (PAK1 (Homo sapiens) [1]): < 6.00
- pKd (PAK1 (Homo sapiens) [2]): < 5.70
